T1: ANAC017 (lacking C-terminal transmembrane domain) (Arabidopsis thaliana, UniProt Q9XIC5 1-525)
T1 sequence: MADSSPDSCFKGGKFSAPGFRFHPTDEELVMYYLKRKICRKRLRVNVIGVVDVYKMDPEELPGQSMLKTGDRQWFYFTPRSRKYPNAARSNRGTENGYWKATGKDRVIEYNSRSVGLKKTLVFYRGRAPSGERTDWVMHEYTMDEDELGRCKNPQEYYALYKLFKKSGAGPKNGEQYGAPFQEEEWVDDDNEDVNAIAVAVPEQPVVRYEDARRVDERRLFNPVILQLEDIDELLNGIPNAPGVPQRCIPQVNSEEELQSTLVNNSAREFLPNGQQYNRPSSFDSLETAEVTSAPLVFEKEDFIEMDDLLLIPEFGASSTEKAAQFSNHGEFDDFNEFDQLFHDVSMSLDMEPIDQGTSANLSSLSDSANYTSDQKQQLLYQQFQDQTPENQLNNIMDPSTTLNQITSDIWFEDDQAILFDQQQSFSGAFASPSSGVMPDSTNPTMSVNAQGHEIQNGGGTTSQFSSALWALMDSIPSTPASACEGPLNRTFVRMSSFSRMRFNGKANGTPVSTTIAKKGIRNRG

B1: ANAC016 intron 1 MDM2 probe (dsDNA)
DNA 1: GATTTGTTGAGTATATGACAAGGAAACGTCTTTATTCACT
DNA 2: AGTGAATAAAGACGTTTCCTTGTCATATACTCAACAAATC
B2: ANAC016 intron 1 MDM1 probe (dsDNA)
DNA 1: GATGTAGTTGAGTATATGACAAGGAAAAGTTTTGGTTGTT
DNA 2: AACAACCAAAACTTTTCCTTGTCATATACTCAACTACATC

Columns and labels:
[1] = target: T1, ANAC017 (lacking C-terminal …); experiment: EMSA; clear shift, less than MDM1; Binding reactions as in Ng et al. 2013 (buffer, pH, temperature not given); 12% acrylamide 0.5x TBE gels; conditions: protein: recombinant; tags: GST (pDEST15); chain copies: 2; label: 32P 5' end (T4 PNK)
[2] = target: T1, ANAC017 (lacking C-terminal …); experiment: EMSA; stronger than MDM2; Binding reactions as in Ng et al. 2013 (buffer, pH, temperature not given); 12% acrylamide 0.5x TBE gels; conditions: protein: recombinant; tags: GST (pDEST15); chain copies: 2; label: 32P 5' end (T4 PNK)

Binder | binding result [1] | binding result [2]
B1 | binds | 
B2 |  | binds
